Numbering of substitutions follows the chain as printed.
Tests used:
Experiment in all cases: competitive EIA on immobilized 356(CHO) with HRP-labeled F1024 antibody
[1] = biological target: T1, amino acid-substituted soluble human CD14 P294H (human, UniProt P08571 20-345)
T1 construct: mature; Expressed in COS-1, purified on a 3C10 column
T1 sequence (looked up): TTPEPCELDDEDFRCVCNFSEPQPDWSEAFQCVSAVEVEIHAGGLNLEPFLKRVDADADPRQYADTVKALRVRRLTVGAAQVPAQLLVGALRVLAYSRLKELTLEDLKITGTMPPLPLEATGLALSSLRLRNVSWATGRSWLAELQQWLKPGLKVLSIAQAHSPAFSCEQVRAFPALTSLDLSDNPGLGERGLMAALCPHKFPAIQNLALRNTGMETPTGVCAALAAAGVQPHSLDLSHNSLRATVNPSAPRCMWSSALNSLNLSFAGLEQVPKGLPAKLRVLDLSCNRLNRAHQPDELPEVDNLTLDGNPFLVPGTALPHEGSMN
Protocol: (§1) A competitive experiment was conducted by the following procedure to confirm the reactivity of each soluble human amino acid-substituted CD14 with the F1024 antibody. […] After allowing to stand overnight at 4° C. and washing 3 times with the PBS containing 0.05% Tween 20, 200 μL/well of PBS⁻ containing 2% StabilGuard (SurModics, Inc.) was added to the well, and the solution was incubated at 37° C. for 30 minutes and stored at 4° C. In the meanwhile, amino acid-substituted soluble human CD14 that had been purified in Example 6-3) was diluted to 2 to 0.02 μg/mL with PBS⁻ containing 0.1% BSA. HRP-labeled F1024 antibody was diluted to 2 μg/mL with PBS⁻ containing 0.1% BSA, and the diluted HRP-labeled F1024 antibody was mixed with an equal amount of the human amino acid-substituted CD14 (25 μL+25 μL). Next, the solution was discarded from the wells of the plate having the soluble CD14 immobilized, and 50 μL/well of a mixed solution of amino acid-substituted CD14 and HRP-labeled F1024 was added. After the incubation at 37° C. for 2 hours, the plate was washed 5 times with PBS⁻ containing 0.05% Tween 20, and 50 μL/well of TMB solution (BioFX) was added to the well as the chromogenic substrate. The reaction was allowed to proceed at room temperature for 5 minutes, the reaction was terminated by adding 50 μL/well of 1M hydrochloric acid solution. Absorbance at 450 nm was measured with a plate spectrophotometer.

[2] = biological target: T2, amino acid-substituted soluble human CD14 Q295A (human, UniProt P08571 20-345)
T2 construct: mature; Expressed in COS-1, purified on a 3C10 column
T2 sequence (looked up): T1 sequence (looked up) with H294P, Q295A
Protocol: as §1

[3] = biological target: T3, amino acid-substituted soluble human CD14 P294/296A (human, UniProt P08571 20-345)
T3 construct: mature; Expressed in COS-1, purified on a 3C10 column
T3 sequence (looked up): T1 sequence (looked up) with H294A, P296A
Protocol: as §1

binding result [1]: no binding (tested: 2 to 0.02 µg/mL) | binding result [2]: no binding (tested: 2 to 0.02 µg/mL) | binding result [3]: no binding (tested: 2 to 0.02 µg/mL)
B1: F1024 antibody (antibody, V domains shown)
VH: QIQLVQSGPELKKPGESVKISCKASGYTFTDYAMNWVKQAPGNGLKWMGWINTQTGKPTYADDFKQRFVFSLETSASTAYLQINNLNIEDTATYFCTRSTFYYSSYIYGWYFDFWGPGTSVTVSS
VL: DIVMTQSPTSISISVGERVTMNCKASQNVGSNVDWYQQKTGQSPKLLIYKASNRYTGVPDRFTGSGSGTDFTFTISNMQAVDLAVYYCMQSNTNPPWTFGGGTKLELKRT
notes: also called antibody F1024; F1024-1-3 rat antibody
